Reference: IntAct's records for PubMed 19759058

Tests used:
casp7_mouse Casp7 = target: T1, casp7_mouse Casp7 (UniProt P97864)
T1 sequence: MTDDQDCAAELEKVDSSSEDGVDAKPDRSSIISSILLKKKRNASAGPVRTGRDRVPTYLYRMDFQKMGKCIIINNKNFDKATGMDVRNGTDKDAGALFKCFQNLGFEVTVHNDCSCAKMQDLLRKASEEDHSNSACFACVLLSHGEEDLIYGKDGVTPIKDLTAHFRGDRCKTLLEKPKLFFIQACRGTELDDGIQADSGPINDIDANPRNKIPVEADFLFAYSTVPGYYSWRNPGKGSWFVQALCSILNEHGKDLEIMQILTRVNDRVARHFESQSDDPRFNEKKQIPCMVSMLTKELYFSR

casp3_mouse Casp3 [1] = target: T2, casp3_mouse Casp3 (UniProt P70677)
T2 sequence: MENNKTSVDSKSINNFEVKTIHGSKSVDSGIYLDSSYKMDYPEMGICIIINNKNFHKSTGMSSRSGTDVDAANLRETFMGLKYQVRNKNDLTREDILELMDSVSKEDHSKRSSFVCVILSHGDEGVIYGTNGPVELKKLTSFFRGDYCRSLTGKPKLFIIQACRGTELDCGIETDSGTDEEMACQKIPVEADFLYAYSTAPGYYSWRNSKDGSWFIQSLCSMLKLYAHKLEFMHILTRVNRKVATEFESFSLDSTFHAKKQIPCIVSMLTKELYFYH

casp3_mouse Casp3 [2] = target: T2, casp3_mouse Casp3; remark: listed apart in the source

Substance	effect of a mutation on the interaction (casp7_mouse Casp7)	effect of a mutation on the interaction (casp3_mouse Casp3 [1])	effect of a mutation on the interaction (casp3_mouse Casp3 [2])
Small ribosomal subunit protein uS13 (Mus musculus) (from UniProt P62270) K88A	decreasing interaction	increasing interaction	–
Small ribosomal subunit protein uS13 (Mus musculus) (from UniProt P62270) Q87A	–	–	increasing interaction
